Where “and” joins values, the source holds several entries; their conditions need not be identical. Equal entries are not always repeated.
B1: rCST9: human recombinant cystatin 9, cysteine proteinase inhibitor; purchased from American Research Products, Inc. (protein, UniProt Q5W186 29-159, looked up)
Cystatin-9: WCSEEEMGGNNKIVQDPMFLATVEFALNTFNVQSKEEHAYRLLRVLSSWREDSMDRKWRGKMVFSMNLQLRQTVCRKFEDDIDNCPFQESLELNNVRQGISFPQVHSCGCCMGCGVGTGAADKAIPRDKGK
B2: rCSTC: human recombinant cystatin C (CST3), cysteine proteinase inhibitor; purchased from R&D Systems (protein, UniProt P01034 27-146, looked up)
Cystatin-C: SSPGKPPRLVGGPMDASVEEEGVRRALDFAVGEYNKASNDMYHSRALQVVRARKQIVAGVNYFLDVELGRTTCTKTQPNLDNCPFHDQPHLKRKAFCSFQIYAVPWQGTMTLSKSTCQDA

How the values were obtained:
[1] = system: gut microbiome; test: Gut microbiome in gavaged mice given 30% full-thickness burn; format: in vivo, Balb/c mice; settings: gavage 50 pg/mouse, then 30% full-thickness burn
Source text: (§1) It is known that intestinal leakage of intestinal bacteria and their product occurs following burn injury likely contributing to systemic infection and sepsis.

[2] = system: NDM-1 Kp; test: LD90 NDM-1 Kp pneumonia murine model, survival; format: in vivo, Balb/c mice; settings: for increased survival of Kp infected mice: single i.p. dose, 50 pg/mouse
Source text: To establish the optimal CST route, timing, and dosage regimen against MDR NDM-1 Kp-induced pneumonia, Balb/c mice (n=10-20 mice/gp) were infected with an i.n. LD90 and treated at various times and doses as depicted in Table 1. Doses included i.n. and/or i.p. single rCST9, rCSTC or a combination of rCST9 and rCSTC. Mice that were infected with NDM-1 Kp but were not treated served as controls. rCST treatments by routes, doses, or as a combined therapy were studied to select an optimal regimen.
Evaluate optimal timing and dosage of rCST-9 and/or PEG-rCST9 administration post-infection. Balb/c mice (n=10-20 mice/gp) were intranasally (i.n.) infected with approximately 1.82×10^8 CFU/mouse of Kp 2146 (as established hereinabove) then treated i.n. or i.p. with rCST9, human recombinant cystatin C (rCSTC) or a combination of rCST9 and rCSTC as depicted in Table 1. Kp infected alone served as controls. […] Therefore, as a comparative control to rCST9, the inventors evaluated the effectiveness of rCSTC against pneumonia using the same doses of 50 and/or 500 pg/mouse.
The potential for rCST9/rCSTC treatment to extend the period before successful antibiotic intervention was initiated was determined. For these evaluations, suboptimal doses of colistin were used to determine the extent of protection afforded by rCSTs as well as to minimize side effects/toxicity caused by this antibiotic (n=10 mice/gp). Doses, timing, and route of colistin were chosen based on efficacy studies of colistin in a mouse model of severe, established MDR pneumonia or a very low dose of colistin then adjusted to suboptimal levels for this study. LD90 NDM-1 Kp-challenged mice were treated with the rCST9/rCSTC 3 d i.p. treatment and then given 2 doses of colistin at 20 mg/kg/day or 1.25 mg/kg/day on day 4 and 5 PI.
Mouse model of pneumonia and CST treatments. Eight-week old female Balb/c mice weighing between 21 and 24 grams (Jackson Laboratories) were housed in an Association for Assessment and Accreditation for Laboratory Animal Care (AAALAC)-approved housing facility and permitted to adjust to their environment for 7 d prior to procedures, receiving free access to food and water throughout the study. All procedures were approved by the University of Texas Medical Branch IACUC and performed humanely with minimal suffering. […] One hour PI, mice were administered an i.n. dose of rCST9/rCSTC (50 pg of each) and then, this group of mice was given an i.p. injection of rCST9/rCSTC (500 pg of each) 3 d PI. A parallel group of infected mice received only a single i.p. dose of rCST9/rCSTC, PEG-rCST9/rCSTC (500 pg of each), or PEG-rCST9 (500 pg) alone 3 d PI. NDM-1-Kp infected mice alone or uninfected mice served as controls. Survival was observed up to 15 days post treatment. Additional groups (n=4 mice/group) of infected and CST-treated mice were euthanized at selected time points (24 h, 72 h, 5 and/or 10 d PI) to harvest lungs. Additional groups were treated with i.n. rCSTs (50 pg of each) as described above but they were euthanized at 30 min, 1 h and 3 h to collect lungs for the quantification of lipid peroxidase by-product, known as malondialdehyde (MDA), as described below.
Additional groups of mice (n=15 mice/group) were treated with the optimal CST treatment regimens of an i.n. dose of rCST9/rCSTC (50 pg of each), followed by an i.p. injection of rCST9/rCSTC (500 pg of each) 3 d PI or the single i.p. dose of rCST9/rCSTC (500 pg of each). At 4 d PI, mice were given 2 separate i.p. injections of colistin (JHP Pharmaceuticals, LLC; colistimethate sodium; 20 mg/kg/mouse or 1.25 mg/kg/day) 8 h apart for 2 d.

[3] = system: NDM-1 Kp; test: In vitro bacteria viability and growth assay; format: cell-based, Klebsiella pneumoniae BAA-2146; settings: given individually and in combination
Source text: Anti-microbial activity of rCST9/rCSTC against NDM-1 Kp. […] To address this directly, PrestoBlue® was used to determine the viability of rCST9/rCSTC-treated NDM-1 Kp based in the reagents rapid reduction by metabolically active bacteria. […] The most substantial decrease in bacterial growth occurred with 50, 500, and 1000 pg of rCSTs compared to lower doses of 10 and 25 pg of rCSTs (FIGS. 7A-C).
Bacteria preparation. The MDR New Delhi metallo-beta-lactamase-1 (NDM-1) producing Klebsiella pneumoniae BAA-2146™ was purchased from ATCC and expanded for 18 hours in 10 mL of brain heart infusion (BHI) broth while shaking at 37° C. The overnight culture was pelleted by centrifugation and then suspended in PBS. Serial dilutions were performed to obtain the desired concentration. Ten-fold dilutions were plated on BHI agar to confirm experimental dosage.
In vitro bacteria viability and growth assay. As a measure of NDM-1 Kp viability, aliquots were treated with Prestoblue® cell viability reagent (Invivogen) following exposure to CSTs. […] Following incubation, […] of Prestoblue® reagent was added to each sample and incubated for 1 h before quantification of cell viability via absorbance at 570-600 nm measurement (Bio-Tek; Epoch Model). […] Additionally, 100 μL of cultures were plated on BHI plates to quantify colony-forming units (CFU) following an overnight incubation at 37° C. […]

[4] = system: MIP-1 and IL-8; test: Systemic cytokines in gavaged mice given 30% full-thickness burn; format: in vivo, Balb/c mice; settings: gavage 50 pg/mouse, then 30% full-thickness burn; specifically in the lungs
Source text: as §1

[5] = 50 pg per mouse, i.n., 1 h pre-infection
[6] = 50 pg per mouse, i.n., 3 d post-infection
[7] = 50 pg per mouse, i.p. then i.p., 1 h and 3 d post-infection
[8] = 500 pg per mouse, i.n., 1 h and 3 d post-infection
[9] = 500 pg per mouse, i.n., 1 h pre-infection

| Molecule | gut microbiome [1] | increased % survival of Kp LD90 mice [2, 5] | increased % survival of Kp LD90 mice [2, 6] [%] | increased % survival of Kp LD90 mice [2, 7] [%] | increased % survival of Kp LD90 mice [2, 8] [%] | increased % survival of Kp LD90 mice [2, 9] [%] | increased survival of Kp infected mice [2] [%] | replication of NDM-1-producing Kp [3] | systemic MIP-1 and IL-8 secretion [4] |
| --- | --- | --- | --- | --- | --- | --- | --- | --- | --- |
| B1 | preserved the gut microbiome | increased survival and 10% | 10 | 5 | 10 | 10 | 15 | inhibited the replication | decrease in systemic MIP-1 and IL-8 secretion |
| B2 | preserved the gut microbiome | increased survival and 20% | 10 | 5 | 10 | 10 | 15 | inhibited the replication | decrease in systemic MIP-1 and IL-8 secretion |

Source: patent US12053511B2, “Cystatin C and Cystatin 9 to treat gut inflammation caused by thermal injury” (priority 2016, dated 2024)
